Data reported in patent US20150344570A1 (published 2015).

T1: FcγRIIb (human, UniProt P31994 43-217)
T1 construct: extracellular domain; Soluble His-tagged extracellular domain expressed in FreeStyle293 cells; analyte in Biacore; also called FcgRIIb; 2b; not shown: His tag attached to the C terminus
T1 sequence (looked up): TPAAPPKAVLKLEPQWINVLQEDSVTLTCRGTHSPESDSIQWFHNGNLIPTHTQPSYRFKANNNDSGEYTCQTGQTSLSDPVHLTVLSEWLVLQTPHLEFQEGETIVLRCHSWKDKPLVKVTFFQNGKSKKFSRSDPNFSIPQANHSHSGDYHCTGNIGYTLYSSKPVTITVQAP

T2: FcγRIIa R (human, UniProt P12318 34-217)
T2 construct: extracellular domain; Soluble His-tagged extracellular domain expressed in FreeStyle293 cells; analyte in Biacore; also called FcgRIIa R; FcgRIIaR; not shown: His tag attached to the C terminus
T2 sequence (looked up): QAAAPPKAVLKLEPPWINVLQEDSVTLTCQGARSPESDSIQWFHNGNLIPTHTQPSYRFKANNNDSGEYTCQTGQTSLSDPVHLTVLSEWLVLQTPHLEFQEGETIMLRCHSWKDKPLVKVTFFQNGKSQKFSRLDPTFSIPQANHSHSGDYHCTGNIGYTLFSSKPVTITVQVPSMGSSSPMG


Legend:
FcγRIIb = target: T1, FcγRIIb; experiment: SPR (Biacore), antibody captured via antigen peptide, FcγR as analyte
Description: (§1) The heterodimerized antibodies He Abs in which one of the H chains was introduced with an alteration were assayed for their binding activities to each activating FcγR and inhibitory FcγR according to the method described in Example 4. […] The activating FcγRs in FIGS. 26, 27, 28, and 29 are FcγRIa, FcγRIIa (R), FcγRIIa (H), and FcγRIIIa, respectively.
(§2) Analysis of interaction between objective antibody and the FcγR was carried out using Biacore T100 (GE Healthcare). HBS-EP+ (GE Healthcare) was used as the running buffer, and the measurement temperature was set to 25° C. Chips produced by immobilizing the antigen peptide by the amine coupling method to a Series S Sencor Chip CM5 (GE Healthcare), or alternatively, chips produced by allowing preliminarily biotinylated antigen peptides to interact with and immobilize onto a Series S Sensor Chip SA (certified) (GE Healthcare) were used. Antibodies of interest were captured onto an antigen peptide-immobilized chip, and allowed to interact to each FcγR diluted with running buffer. To regenerate and repeatedly use the chip, the antibodies captured on the chip were washed off by reacting 10 mM glycine-HCl, pH 1.5.

FcγRIIa R [1] = target: T2, FcγRIIa R; experiment: as above
Description: as §1, §2

FcγRIIa R [2] = target: T2, FcγRIIa R; experiment: ratio of He/Con_2aR to He/Con_2b (binding to FcγRIIb as reference); SPR

| He/Con_2b (IIb binding relative to GpH7-A5/GpH7-B3/GpL16-k0) (FcγRIIb) | He/Con_2aR (IIaR binding relative to GpH7-A5/GpH7-B3/GpL16-k0) (FcγRIIa R [1]) | He_2aR/2b (IIaR/IIb) (FcγRIIa R [2]) | Binder |
| --- | --- | --- | --- |
| 20.3 % of control (control = 100) | 30.3 % of control (control = 100) | 1.5 | GpH7-A5/GpH7-B3 variant I336_20W/GpL16-k0 (antibody, human IgG1, kappa, Heterodimerized anti-glypican-3 IgG1 antibody; alteration only in the GpH7-B3 H chain; position in EU numbering; also called He Ab) heavy 1: not shown heavy 2: not shown light: DIVMTQSPLSLPVTPGEPASISCQASESLVHSNRNTYLHWYLQKPGQSPQLLIYKVSNRFSGVPDRFSGSGSGTDFTLKISRVEAEDVGVYYCSQNTHVPPTFGQGTKVEIERTVAAPSVFIFPPSDEQLKSGTASVVCLLNNFYPREAKVQWKVDNALQSGNSQESVTEQDSKDSTYSLSSTLTLSKADYEKHKVYACEVTHQGLSSPVTKSFNRGEC |
| 19.1 % of control (control = 100) | 26.1 % of control (control = 100) | 1.37 | GpH7-A5/GpH7-B3 variant N325_12R/GpL16-k0 (antibody, human IgG1, kappa, Heterodimerized anti-glypican-3 IgG1 antibody; alteration only in the GpH7-B3 H chain; position in EU numbering; also called He Ab) heavy 1: not shown heavy 2: not shown light: DIVMTQSPLSLPVTPGEPASISCQASESLVHSNRNTYLHWYLQKPGQSPQLLIYKVSNRFSGVPDRFSGSGSGTDFTLKISRVEAEDVGVYYCSQNTHVPPTFGQGTKVEIERTVAAPSVFIFPPSDEQLKSGTASVVCLLNNFYPREAKVQWKVDNALQSGNSQESVTEQDSKDSTYSLSSTLTLSKADYEKHKVYACEVTHQGLSSPVTKSFNRGEC |
| 70.1 % of control (control = 100) | 89 % of control (control = 100) | 1.27 | GpH7-A5/GpH7-B3 variant N325_16H/GpL16-k0 (antibody, human IgG1, kappa, Heterodimerized anti-glypican-3 IgG1 antibody; alteration only in the GpH7-B3 H chain; position in EU numbering; also called He Ab) heavy 1: not shown heavy 2: not shown light: DIVMTQSPLSLPVTPGEPASISCQASESLVHSNRNTYLHWYLQKPGQSPQLLIYKVSNRFSGVPDRFSGSGSGTDFTLKISRVEAEDVGVYYCSQNTHVPPTFGQGTKVEIERTVAAPSVFIFPPSDEQLKSGTASVVCLLNNFYPREAKVQWKVDNALQSGNSQESVTEQDSKDSTYSLSSTLTLSKADYEKHKVYACEVTHQGLSSPVTKSFNRGEC |
| 10.4 % of control (control = 100) | 16.2 % of control (control = 100) | 1.57 | GpH7-A5/GpH7-B3 variant N325_11K/GpL16-k0 (antibody, human IgG1, kappa, Heterodimerized anti-glypican-3 IgG1 antibody; alteration only in the GpH7-B3 H chain; position in EU numbering; also called He Ab) heavy 1: not shown heavy 2: not shown light: DIVMTQSPLSLPVTPGEPASISCQASESLVHSNRNTYLHWYLQKPGQSPQLLIYKVSNRFSGVPDRFSGSGSGTDFTLKISRVEAEDVGVYYCSQNTHVPPTFGQGTKVEIERTVAAPSVFIFPPSDEQLKSGTASVVCLLNNFYPREAKVQWKVDNALQSGNSQESVTEQDSKDSTYSLSSTLTLSKADYEKHKVYACEVTHQGLSSPVTKSFNRGEC |
| 64.4 % of control (control = 100) | 84.1 % of control (control = 100) | 1.31 | GpH7-A5/GpH7-B3 variant N325_02A/GpL16-k0 (antibody, human IgG1, kappa, Heterodimerized anti-glypican-3 IgG1 antibody; alteration only in the GpH7-B3 H chain; position in EU numbering; also called He Ab) heavy 1: not shown heavy 2: not shown light: DIVMTQSPLSLPVTPGEPASISCQASESLVHSNRNTYLHWYLQKPGQSPQLLIYKVSNRFSGVPDRFSGSGSGTDFTLKISRVEAEDVGVYYCSQNTHVPPTFGQGTKVEIERTVAAPSVFIFPPSDEQLKSGTASVVCLLNNFYPREAKVQWKVDNALQSGNSQESVTEQDSKDSTYSLSSTLTLSKADYEKHKVYACEVTHQGLSSPVTKSFNRGEC |
| 69.1 % of control (control = 100) | 92.1 % of control (control = 100) | 1.33 | GpH7-A5/GpH7-B3 variant N325_19Q/GpL16-k0 (antibody, human IgG1, kappa, Heterodimerized anti-glypican-3 IgG1 antibody; alteration only in the GpH7-B3 H chain; position in EU numbering; also called He Ab) heavy 1: not shown heavy 2: not shown light: DIVMTQSPLSLPVTPGEPASISCQASESLVHSNRNTYLHWYLQKPGQSPQLLIYKVSNRFSGVPDRFSGSGSGTDFTLKISRVEAEDVGVYYCSQNTHVPPTFGQGTKVEIERTVAAPSVFIFPPSDEQLKSGTASVVCLLNNFYPREAKVQWKVDNALQSGNSQESVTEQDSKDSTYSLSSTLTLSKADYEKHKVYACEVTHQGLSSPVTKSFNRGEC |
| 26 % of control (control = 100) | 42.2 % of control (control = 100) | 1.63 | GpH7-A5/GpH7-B3 variant N325_05P/GpL16-k0 (antibody, human IgG1, kappa, Heterodimerized anti-glypican-3 IgG1 antibody; alteration only in the GpH7-B3 H chain; position in EU numbering; also called He Ab) heavy 1: not shown heavy 2: not shown light: DIVMTQSPLSLPVTPGEPASISCQASESLVHSNRNTYLHWYLQKPGQSPQLLIYKVSNRFSGVPDRFSGSGSGTDFTLKISRVEAEDVGVYYCSQNTHVPPTFGQGTKVEIERTVAAPSVFIFPPSDEQLKSGTASVVCLLNNFYPREAKVQWKVDNALQSGNSQESVTEQDSKDSTYSLSSTLTLSKADYEKHKVYACEVTHQGLSSPVTKSFNRGEC |
